B1: Motile sperm domain-containing protein 2 (Homo sapiens), Q8NHP6 (parent)
chain: MAENHAQNKAKLISETRRRFEAEYVTDKSDKYDARDVERLQQDDNWVESYLSWRHNIVDETLKMLDESFQWRKEISVNDLNESSIPRWLLEIGVIYLHGYDKEGNKLFWIRVKYHVKDQKTILDKKKLIAFWLERYAKRENGKPVTVMFDLSETGINSIDMDFVRFIINCFKVYYPKYLSKIVIFDMPWLMNAAFKIVKTWLGPEAVSLLKFTSKNEVQDYVSVEYLPPHMGGTDPFKYSYPPLVDDDFQTPLCENGPITSEDETSSKEDIESDGKETLETISNEEQTPLLKKINPTESTSKAEENEKVDSKVKAFKKPLSVFKGPLLHISPAEELYFGSTESGEKKTLIVLTNVTKNIVAFKVRTTAPEKYRVKPSNSSCDPGASVDIVVSPHGGLTVSAQDRFLIMAAEMEQSSGTGPAELTQFWKEVPRNKVMEHRLRCHTVESSKPNTLTLKDNAFNMSDKTSEDICLQLSRLLESNRKLEDQVQRCIWFQQLLLSLTMLLLAFVTSFFYLLYS
partner: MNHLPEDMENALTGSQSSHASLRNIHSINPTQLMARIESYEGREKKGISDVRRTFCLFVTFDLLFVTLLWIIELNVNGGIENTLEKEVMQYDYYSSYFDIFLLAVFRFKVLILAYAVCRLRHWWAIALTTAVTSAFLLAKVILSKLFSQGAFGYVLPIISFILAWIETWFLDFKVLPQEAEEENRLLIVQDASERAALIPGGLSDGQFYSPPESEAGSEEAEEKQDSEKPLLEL
B2: Motile sperm domain-containing protein 2 (Homo sapiens), Q8NHP6 (parent)
chain: B1 chain
partner: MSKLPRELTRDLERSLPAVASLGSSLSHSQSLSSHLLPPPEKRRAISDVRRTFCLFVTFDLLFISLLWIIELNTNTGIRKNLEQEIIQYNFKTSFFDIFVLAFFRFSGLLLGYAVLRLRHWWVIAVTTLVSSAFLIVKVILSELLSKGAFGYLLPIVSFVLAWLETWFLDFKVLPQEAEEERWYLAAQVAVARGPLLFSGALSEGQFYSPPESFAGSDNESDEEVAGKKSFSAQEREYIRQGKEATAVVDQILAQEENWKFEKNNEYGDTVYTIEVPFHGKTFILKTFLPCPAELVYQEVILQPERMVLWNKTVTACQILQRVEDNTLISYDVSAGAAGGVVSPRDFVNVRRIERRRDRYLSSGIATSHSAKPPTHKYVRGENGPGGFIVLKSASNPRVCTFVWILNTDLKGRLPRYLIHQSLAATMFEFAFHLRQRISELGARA
B3: Motile sperm domain-containing protein 2 (Homo sapiens), Q8NHP6 (parent)
chain: B1 chain
partner: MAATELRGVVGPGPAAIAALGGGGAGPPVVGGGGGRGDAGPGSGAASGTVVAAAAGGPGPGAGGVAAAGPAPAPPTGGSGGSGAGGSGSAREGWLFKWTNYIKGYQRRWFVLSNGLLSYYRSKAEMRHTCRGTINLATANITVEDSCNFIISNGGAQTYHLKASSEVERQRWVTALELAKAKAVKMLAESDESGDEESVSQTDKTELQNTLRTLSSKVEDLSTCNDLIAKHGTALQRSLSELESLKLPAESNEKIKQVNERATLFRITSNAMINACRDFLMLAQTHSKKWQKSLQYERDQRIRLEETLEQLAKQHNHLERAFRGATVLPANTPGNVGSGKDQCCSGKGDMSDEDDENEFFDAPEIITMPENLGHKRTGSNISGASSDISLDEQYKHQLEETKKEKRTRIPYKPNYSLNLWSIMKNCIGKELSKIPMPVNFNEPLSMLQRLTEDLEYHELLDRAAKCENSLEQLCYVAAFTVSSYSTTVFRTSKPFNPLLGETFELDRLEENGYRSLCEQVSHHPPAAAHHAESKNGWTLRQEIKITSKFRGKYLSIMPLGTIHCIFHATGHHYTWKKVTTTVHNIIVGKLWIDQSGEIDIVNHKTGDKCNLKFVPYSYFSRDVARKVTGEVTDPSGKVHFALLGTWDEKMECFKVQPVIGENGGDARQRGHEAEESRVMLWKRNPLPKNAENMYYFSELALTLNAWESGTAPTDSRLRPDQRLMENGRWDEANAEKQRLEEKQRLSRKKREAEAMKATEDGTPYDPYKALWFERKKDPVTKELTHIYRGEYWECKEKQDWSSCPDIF
B4: StAR-related lipid transfer protein 3 (Homo sapiens), Q14849 (parent)
chain: B2 partner
partner: B1 chain
B5: Motile sperm domain-containing protein 2 (Homo sapiens), Q8NHP6 (parent)
chain: B1 chain
partner: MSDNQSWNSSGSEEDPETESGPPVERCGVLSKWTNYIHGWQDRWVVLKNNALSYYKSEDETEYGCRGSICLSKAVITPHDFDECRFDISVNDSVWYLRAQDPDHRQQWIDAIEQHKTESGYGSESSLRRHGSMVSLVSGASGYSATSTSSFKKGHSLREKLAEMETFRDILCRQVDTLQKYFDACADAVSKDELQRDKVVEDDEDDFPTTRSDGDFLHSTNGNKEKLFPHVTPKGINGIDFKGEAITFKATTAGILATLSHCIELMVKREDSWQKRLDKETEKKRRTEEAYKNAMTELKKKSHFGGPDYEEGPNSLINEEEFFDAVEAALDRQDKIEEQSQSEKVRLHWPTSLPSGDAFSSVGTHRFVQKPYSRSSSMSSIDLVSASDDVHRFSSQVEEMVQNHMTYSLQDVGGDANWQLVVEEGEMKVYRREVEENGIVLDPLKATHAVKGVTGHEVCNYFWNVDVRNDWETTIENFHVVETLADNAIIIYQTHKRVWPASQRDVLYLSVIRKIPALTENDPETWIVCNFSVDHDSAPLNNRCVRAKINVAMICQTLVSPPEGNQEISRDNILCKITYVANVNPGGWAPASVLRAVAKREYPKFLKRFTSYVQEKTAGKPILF

The variants in one experiment derive from B1. To be noted: with str3n_human STARD3NL.
With MAENHAQNKAKLISETRRRFEAEYVTDKSDKYDARDVERLQQDDNWVESYLSWRHNIVDETLKMLDESFQWRKEISVNDLNESSIPRWLLEIGVIYLHGYDKEGNKLFWIRVKYHVKDQKTILDKKKLIAFWLERYAKRENGKPVTVMFDLSETGINSIDMDFVRFIINCFKVYYPKYLSKIVIFDMPWLMNAAFKIVKTWLGPEAVSLLKFTSKNEVQDYVSVEYLPPHMGGTDPFKYSYPPLVDDDFQTPLCENGPITSEDETSSKEDIESDGKETLETISNEEQTPLLKKINPTESTSKAEENEKVDSKVKAFKKPLSVFKGPLLHISPAEELYFGSTESGEKKTLIVLTNVTKNIVAFKVRTTAPEKYRVKPSNSSCDPGASVDIVVSPHGGLTVSAQDDFDIMAAEMEQSSGTGPAELTQFWKEVPRNKVMEHRLRCHTVESSKPNTLTLKDNAFNMSDKTSEDICLQLSRLLESNRKLEDQVQRCIWFQQLLLSLTMLLLAFVTSFFYLLYS [R404D;L406D], the “effect of a mutation on the interaction” value is “disrupting interaction strength”.

The variants in the next experiment derive from B2. Particulars: with star3_human STARD3, Q14849.
Regarding MAENHAQNKAKLISETRRRFEAEYVTDKSDKYDARDVERLQQDDNWVESYLSWRHNIVDETLKMLDESFQWRKEISVNDLNESSIPRWLLEIGVIYLHGYDKEGNKLFWIRVKYHVKDQKTILDKKKLIAFWLERYAKRENGKPVTVMFDLSETGINSIDMDFVRFIINCFKVYYPKYLSKIVIFDMPWLMNAAFKIVKTWLGPEAVSLLKFTSKNEVQDYVSVEYLPPHMGGTDPFKYSYPPLVDDDFQTPLCENGPITSEDETSSKEDIESDGKETLETISNEEQTPLLKKINPTESTSKAEENEKVDSKVKAFKKPLSVFKGPLLHISPAEELYFGSTESGEKKTLIVLTNVTKNIVAFKVRTTAPEKYRVKPSNSSCDPGASVDIVVSPHGGLTVSAQDDFDIMAAEMEQSSGTGPAELTQFWKEVPRNKVMEHRLRCHTVESSKPNTLTLKDNAFNMSDKTSEDICLQLSRLLESNRKLEDQVQRCIWFQQLLLSLTMLLLAFVTSFFYLLYS [R404D;L406D], the “effect of a mutation on the interaction” value is “disrupting interaction strength”.

Variants of B3 are the subject of the next experiment. To be noted: with osbp1_human OSBP.
Consider MAENHAQNKAKLISETRRRFEAEYVTDKSDKYDARDVERLQQDDNWVESYLSWRHNIVDETLKMLDESFQWRKEISVNDLNESSIPRWLLEIGVIYLHGYDKEGNKLFWIRVKYHVKDQKTILDKKKLIAFWLERYAKRENGKPVTVMFDLSETGINSIDMDFVRFIINCFKVYYPKYLSKIVIFDMPWLMNAAFKIVKTWLGPEAVSLLKFTSKNEVQDYVSVEYLPPHMGGTDPFKYSYPPLVDDDFQTPLCENGPITSEDETSSKEDIESDGKETLETISNEEQTPLLKKINPTESTSKAEENEKVDSKVKAFKKPLSVFKGPLLHISPAEELYFGSTESGEKKTLIVLTNVTKNIVAFKVRTTAPEKYRVKPSNSSCDPGASVDIVVSPHGGLTVSAQDDFDIMAAEMEQSSGTGPAELTQFWKEVPRNKVMEHRLRCHTVESSKPNTLTLKDNAFNMSDKTSEDICLQLSRLLESNRKLEDQVQRCIWFQQLLLSLTMLLLAFVTSFFYLLYS [R404D;L406D], for which the “effect of a mutation on the interaction” value was “disrupting interaction strength”.

Variants of B4 are the subject of a further experiment. Particulars: with mspd2_human MOSPD2, Q8NHP6.
On to MSKLPRELTRDLERSLPAVASLGSSLSHSQSLSSHLLPPPEKRRAISDVRRTFCLFVTFDLLFISLLWIIELNTNTGIRKNLEQEIIQYNFKTSFFDIFVLAFFRFSGLLLGYAVLRLRHWWVIAVTTLVSSAFLIVKVILSELLSKGAFGYLLPIVSFVLAWLETWFLDFKVLPQEAEEERWYLAAQVAVARGPLLFSGALSEGQAASPPESFAGSDNESDEEVAGKKSFSAQEREYIRQGKEATAVVDQILAQEENWKFEKNNEYGDTVYTIEVPFHGKTFILKTFLPCPAELVYQEVILQPERMVLWNKTVTACQILQRVEDNTLISYDVSAGAAGGVVSPRDFVNVRRIERRRDRYLSSGIATSHSAKPPTHKYVRGENGPGGFIVLKSASNPRVCTFVWILNTDLKGRLPRYLIHQSLAATMFEFAFHLRQRISELGARA [F207A;Y208A], for which the “effect of a mutation on the interaction” value was “disrupting interaction strength”.

The variants in the next experiment derive from B5. To be noted: with cert_human CERT1, Q9Y5P4.
Take MAENHAQNKAKLISETRRRFEAEYVTDKSDKYDARDVERLQQDDNWVESYLSWRHNIVDETLKMLDESFQWRKEISVNDLNESSIPRWLLEIGVIYLHGYDKEGNKLFWIRVKYHVKDQKTILDKKKLIAFWLERYAKRENGKPVTVMFDLSETGINSIDMDFVRFIINCFKVYYPKYLSKIVIFDMPWLMNAAFKIVKTWLGPEAVSLLKFTSKNEVQDYVSVEYLPPHMGGTDPFKYSYPPLVDDDFQTPLCENGPITSEDETSSKEDIESDGKETLETISNEEQTPLLKKINPTESTSKAEENEKVDSKVKAFKKPLSVFKGPLLHISPAEELYFGSTESGEKKTLIVLTNVTKNIVAFKVRTTAPEKYRVKPSNSSCDPGASVDIVVSPHGGLTVSAQDDFDIMAAEMEQSSGTGPAELTQFWKEVPRNKVMEHRLRCHTVESSKPNTLTLKDNAFNMSDKTSEDICLQLSRLLESNRKLEDQVQRCIWFQQLLLSLTMLLLAFVTSFFYLLYS [R404D;L406D]: the “effect of a mutation on the interaction” value is recorded as “disrupting interaction strength”.

Source of the values: IntAct's records for PubMed 29858488.
